# Assay results published in patent US20220249679A1 (MITSUBISHI TANABE PHARMA, published 2022).
# T1: Human FGFR3b on transfected CHO cells (human)
# T1 chain: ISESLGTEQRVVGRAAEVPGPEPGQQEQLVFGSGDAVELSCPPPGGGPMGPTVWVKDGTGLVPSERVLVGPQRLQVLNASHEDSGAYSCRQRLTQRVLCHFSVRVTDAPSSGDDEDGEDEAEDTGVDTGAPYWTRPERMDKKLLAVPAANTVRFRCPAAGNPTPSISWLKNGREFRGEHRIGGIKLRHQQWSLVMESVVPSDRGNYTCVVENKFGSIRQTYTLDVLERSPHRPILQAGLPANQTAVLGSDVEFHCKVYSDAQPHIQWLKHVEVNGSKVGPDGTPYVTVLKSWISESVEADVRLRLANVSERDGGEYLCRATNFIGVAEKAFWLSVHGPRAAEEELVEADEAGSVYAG
# T2: hCD138 (ELISA of Table 29) (human, UniProt P18827 23-254, limits assumed)
# T2 construct: also called human CD138
# T2 sequence: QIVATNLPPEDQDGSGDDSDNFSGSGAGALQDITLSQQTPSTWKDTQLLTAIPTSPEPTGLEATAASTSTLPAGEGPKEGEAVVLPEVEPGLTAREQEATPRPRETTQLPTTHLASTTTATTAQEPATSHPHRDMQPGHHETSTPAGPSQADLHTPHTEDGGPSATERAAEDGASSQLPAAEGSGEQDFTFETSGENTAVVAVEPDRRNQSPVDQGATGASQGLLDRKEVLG
# T3: Human FGFR3c on transfected CHO cells (human, UniProt P22607 23-375)
# T3 sequence: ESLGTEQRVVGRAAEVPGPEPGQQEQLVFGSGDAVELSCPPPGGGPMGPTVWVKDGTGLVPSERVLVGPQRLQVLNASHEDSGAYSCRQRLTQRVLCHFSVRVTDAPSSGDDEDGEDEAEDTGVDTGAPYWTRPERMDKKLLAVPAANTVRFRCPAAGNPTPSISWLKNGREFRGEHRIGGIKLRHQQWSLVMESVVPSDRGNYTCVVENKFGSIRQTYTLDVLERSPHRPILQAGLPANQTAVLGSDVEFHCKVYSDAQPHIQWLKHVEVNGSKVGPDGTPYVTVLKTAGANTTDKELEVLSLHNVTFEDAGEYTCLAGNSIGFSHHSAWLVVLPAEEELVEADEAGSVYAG
# T4: Human CD138 His (human, UniProt P18827 23-254)
# T4 construct: also called hCD138
# T4 sequence: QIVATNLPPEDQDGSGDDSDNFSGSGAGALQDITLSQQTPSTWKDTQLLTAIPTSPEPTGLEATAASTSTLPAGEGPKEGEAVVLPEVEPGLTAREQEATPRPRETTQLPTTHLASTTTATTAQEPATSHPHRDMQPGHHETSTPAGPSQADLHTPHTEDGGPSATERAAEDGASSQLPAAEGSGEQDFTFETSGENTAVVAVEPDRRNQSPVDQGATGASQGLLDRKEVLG
# T5: Mouse CD138 His (mouse, UniProt P18828 23-255)
# T5 construct: also called mCD138
# T5 sequence: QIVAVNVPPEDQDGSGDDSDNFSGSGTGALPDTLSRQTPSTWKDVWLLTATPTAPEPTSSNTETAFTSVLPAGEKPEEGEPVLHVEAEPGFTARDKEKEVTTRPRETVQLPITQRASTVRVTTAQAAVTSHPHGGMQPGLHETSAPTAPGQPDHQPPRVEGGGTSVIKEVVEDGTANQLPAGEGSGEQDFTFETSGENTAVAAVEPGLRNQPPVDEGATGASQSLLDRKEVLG
# T6: Human syndecan-1 (CD138) on the cell surface (human, UniProt P18827 23-310)
# T6 construct: Endogenous on H929, KMS-11 and RT112/84 cells or transfected into Expi293 cells; also called human CD138; hCD138
# T6 sequence: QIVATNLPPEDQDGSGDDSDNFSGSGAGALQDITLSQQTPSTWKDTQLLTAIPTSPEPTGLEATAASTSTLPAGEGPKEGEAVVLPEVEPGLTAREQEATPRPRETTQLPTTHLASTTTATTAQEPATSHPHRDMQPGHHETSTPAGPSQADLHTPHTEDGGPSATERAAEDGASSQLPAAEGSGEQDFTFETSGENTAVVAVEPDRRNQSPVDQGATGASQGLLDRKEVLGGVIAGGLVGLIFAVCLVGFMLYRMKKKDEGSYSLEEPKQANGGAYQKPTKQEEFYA
# T7: Cynomolgus monkey CD138 on transfected Expi293 cells (cynomolgus monkey, UniProt P18827 23-310 (human entry))
# T7 construct: also called cyno CD138
# T7 chain: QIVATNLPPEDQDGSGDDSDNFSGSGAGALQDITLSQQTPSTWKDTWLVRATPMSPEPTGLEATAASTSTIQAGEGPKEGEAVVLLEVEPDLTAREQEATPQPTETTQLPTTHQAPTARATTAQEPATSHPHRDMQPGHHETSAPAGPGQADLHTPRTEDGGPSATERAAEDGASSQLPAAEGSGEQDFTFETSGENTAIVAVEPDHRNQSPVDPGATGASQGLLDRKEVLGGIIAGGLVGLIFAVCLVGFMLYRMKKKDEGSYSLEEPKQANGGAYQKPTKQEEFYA
# T8: Human CD138-Fc protein (human, UniProt P18827 23-254)
# T8 construct: also called hCD138-Fc
# T8 sequence: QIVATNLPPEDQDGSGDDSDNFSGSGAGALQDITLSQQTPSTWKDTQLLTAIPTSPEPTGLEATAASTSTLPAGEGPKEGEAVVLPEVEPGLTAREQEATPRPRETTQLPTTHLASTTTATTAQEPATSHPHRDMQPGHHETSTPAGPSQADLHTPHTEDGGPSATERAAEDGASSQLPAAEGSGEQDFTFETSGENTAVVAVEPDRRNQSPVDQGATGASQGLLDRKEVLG
# T9: hCD138 peptide AGEGPKEGEAVVLP (human)
# T9 construct: Portion of the linear CD138 peptide used for immunization; also the peptide in the crystal structure; also called syndecan-1 peptide
# T9 peptide: AGEGPKEGEAVVLP
# T10: Negative control peptide QAAVTSHPHGGMQPGLHETSA (mouse)
# T10 construct: also called mouse CD138 peptide
# T10 peptide: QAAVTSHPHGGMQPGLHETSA
# Experiments:
# [1] = biological target: T1, Human FGFR3b on transfected CHO cells; experiment: FACS histogram on CHO cells expressing human FGFR3b (panel title FGFR3b K.I.); concentration not given
# Text: (§1) CHO cells (Chinese Hamster Ovary cells) were transfected to express the human FGFR3c (FIG. 16A) or human FGFR3b (FIG. 16B) on the cell surface.
# [2] = biological target: T2, hCD138 (ELISA of Table 29); experiment: hCD138 ELISA
# [3] = biological target: T3, Human FGFR3c on transfected CHO cells; experiment: FACS histogram on CHO cells expressing human FGFR3c (panel title FGFR3c K.I.); concentration not given
# Text: as §1
# Human CD138 His [4] = biological target: T4, Human CD138 His; experiment: SPR (BioRad Proteon), CD138 His immobilized, bivalent analyte fit
# Experimental: (§2) Murine IgGs were purified from the hybridoma supernatants and the IgGs were subject to SPR (surface plasmon resonance) for kinetic binding measurements. Human or mouse CD138 His was immobilized on a GLM chip at […] on a BioRad Proteon. […] KDs were measured using bivalent analyte fit.
# Human CD138 His [5] = biological target: T4, Human CD138 His; experiment: SPR, summary table
# Experimental: as §2
# Mouse CD138 His [6] = biological target: T5, Mouse CD138 His; experiment: SPR, summary table
# Experimental: as §2
# Mouse CD138 His [7] = biological target: T5, Mouse CD138 His; experiment: SPR (BioRad Proteon), mouse CD138 His immobilized, bivalent analyte fit
# Experimental: as §2
# [8] = biological target: T6, Human syndecan-1 (CD138) on the cell …; experiment: FACS on RT112/84 cells (previous experiments); RT112/84 bladder cancer cells (printed RT-122/84), previous experiments
# [9] = biological target: T7, Cynomolgus monkey CD138 on transfected …; experiment: FACS titration on Expi293 cells transfected with cynomolgus CD138
# Text: Briefly, a vector directing the cell-surface expression of human CD138 or cyno CD138 was transfected in Expi293 cells.
# Human CD138-Fc protein = biological target: T8, Human CD138-Fc protein; experiment: ELISA, plate-coated human CD138-Fc
# Experimental: (§3) A CD138 binding ELISA was performed with 9 representative humanized antibodies to determine binding to portion of the linear CD138 peptide used for immunization (FIG. 7). […] Coated plates were incubated with various dilutions of each of the 9 representative antibodies overnight and binding was detected with a goat anti-human IgG (H+L)-HRP. EC50s were determined using four parameter fit curves (Table 21). An ELISA was also performed to detect binding to plate-coated human CD138-Fc protein (Table 21).
# [10] = biological target: T9, hCD138 peptide AGEGPKEGEAVVLP; experiment: ELISA, plate-coated hCD138 peptide
# Experimental: as §3
# [11] = biological target: T6, Human syndecan-1 (CD138) on the cell …; experiment: FACS on KMS-11 cells (previous experiments); KMS-11 multiple myeloma cells, previous experiments
# Mouse CD138 His [12] = biological target: T5, Mouse CD138 His; experiment: SPR, mouse CD138 His immobilized
# Experimental: as §2
# [13] = biological target: T10, Negative control peptide …; experiment: told in the method of the peptide ELISA
# Experimental: as §3
binder,measurement,setting,value
"hF6-HN-G7 (bispecific antibody, human IgG1, kappa, G7 Fynomer fused through the linker to the N-terminus of the hF6 heavy chain; IgG1/kappa) heavy: not shown light: DVVMTQTPLSLSVTPGQPASISCKSSQSLLASDGKTYLNWLLQRPGQSPKRLIYLVSKLDSGVPNRFSGSGSGTDFTLQISRVEAEDVGLYYCWQGAHFPFTFGSGTKLEIKRTVAAPSVFIFPPSDEQLKSGTASVVCLLNNFYPREAKVQWKVDNALQSGNSQESVTEQDSKDSTYSLSSTLTLSKADYEKHKVYACEVTHQGLSSPVTKSFNRGEC",binding result,[1],binds
same,EC50,[2],0.69 nM
same,binding result,[3],binds
"F12P18D4.a (antibody, V domains shown, Murine IgG purified from hybridoma supernatant) VH: EVQLQQSGPELVKPGASVKMSCKASGYTFADYYMKWVKQSHGKSLEWIGDINPNSGDTFYNHKFKGKATLTVDKSSSTAYMQLNSLTSEDSAVYYCARTYYDYWGQGTTLTVSS VL: not shown",Kd,Human CD138 His [4],28.6 nM
same,koff,Human CD138 His [4],0.018 s⁻¹
same,kon,Human CD138 His [4],631000 M⁻¹ s⁻¹
same,Kd,Human CD138 His [5],29 nM
same,Kd,Mouse CD138 His [6],672 nM
same,Kd,Mouse CD138 His [7],672 nM
"12P16F6 hIgG1 (antibody, V domains shown, Chimeric antibody: murine variable regions of F12P16F6 with constant regions of human IgG1, kappa isotype; also called chF6; chP16F6) VH: QVQLQQSGAEVVKPGASVKLSCKASGYTFTSYYLYWVKKGPGQGLDWIGEIYPRSGGTNINEKFLSKATLTADESSSTAYLQLSSLTSEDSAVYYCTRSLLYWGQGTTLIVSS VL: not shown",EC50,[8],~9 nM
same,binding result,[9],binds
same,EC50,Human CD138-Fc protein,0.471 nM
same,EC50,[10],0.599 nM
same,EC50,[11],~3 nM
"F12P16F6 (antibody, V domains shown, Murine hybridoma antibody (IgG); tested as hybridoma supernatant in FACS and as purified murine IgG in SPR) VH: QVQLQQSGAEVVKPGASVKLSCKASGYTFTSYYLYWVKKGPGQGLDWIGEIYPRSGGTNINEKFLSKATLTADESSSTAYLQLSSLTSEDSAVYYCTRSLLYWGQGTTLIVSS VL: not shown",Kd,Human CD138 His [4],21 nM
same,koff,Human CD138 His [4],0.00117 s⁻¹
same,kon,Human CD138 His [4],55700 M⁻¹ s⁻¹
same,binding result,Mouse CD138 His [12],no binding (tested: 167 nM)
same,Kd,Human CD138 His [5],21 nM
same,binding result,[13],no binding
